Patent US20240059758A1 (CORAT THERAPEUTICS, published 2024)

B1: hybrid antibody VL YU536-D04 / VH STE90-C11 (antibody, V domains shown)
VH: QVQLVESGGGLVQPGGSLRLSCAASGLTVSSNYMSWVRQAPGKGLEWVSVIYSGGSTYYADSVKGRFTISRDDSKNTLYLQMNSLRAEDTAVYYCARDVADAFDIWGQGTMVTVSS
VL: DIQLTQSPSSLSASVGDRVTITCRASQGISSYLAWYQQKPGKAPKLLIYAASTLQSGVPSRFSGSGSGTDFTLTISSLQPEDFATYYCQQLNSYPITFGQGTKLEIK
B2: hybrid antibody VL YU536-D04 / VH YU537-H11 (antibody, V domains shown)
VH: EVQLLESGGGLIQPGGSLRLSCAASGLTVSSNYMSWVRQAPGKGLEWVSVIYSGGSTYYADSVKGRFTISRDNSKNALYLQMNSLRAEDTAVYYCARGESGSPYGMDVWGQGTLVTVSS
VL: B1 VL
B3: hybrid antibody VL STE90-C11 / VH YU536-D04 (antibody, V domains shown)
VH: QVQLVQSGGGLVQPGGSLRLSCAASGLTVSSNYMSWVRQAPGKGLEWVSVIYSGGSTYYADSVKGRFIISRDNSKNTLYLQMNSLRAEDTAVYYCARDLVVMGLDVWGKGTLVTVSS
VL: DIVMTQSPSFLSASVGDRVTITCRASQGISSYLAWYQQKPGKAPKLLIYAASTLQSGVPSRFSGSGSGTEFTLTISSLQPEDFATYYCQQLNSYPPFTFGPGTKVDIK
B4: hybrid antibody VL YU537-H11 / VH YU536-D04 (antibody, V domains shown)
VH: B3 VH
VL: QSVLTQPPSVSAAPGQKVTISCSGSSSNIGNNYVSWYQQLPGTAPKLLIYDTNKRPSGIPDRFSGSKSGTSATLGITGLQTGDEADYYCATWDSSLSVGVFGGGTKLTVL
B5: hybrid antibody VL STE90-C11 / VH YU537-H11 (antibody, V domains shown)
VH: B2 VH
VL: B3 VL
B6: hybrid antibody VL YU537-H11 / VH STE90-C11 (antibody, V domains shown)
VH: B1 VH
VL: B4 VL

target: RBD mutant N501Y (SARS-CoV-2, UniProt P0DTC2 319-591); assay: binding study, chain shuffling

| Binder | binding result |
| --- | --- |
| B1 | binds |
| B2 | binds |
| B3 | binds |
| B4 | binds |
| B5 | binds |
| B6 | binds |

target: T1, RBD mutant K417N (SARS-CoV-2, UniProt P0DTC2 319-591); assay: binding study, chain shuffling

| Binder | binding result |
| --- | --- |
| B1 | binds |
| B2 | binds |
| B4 | binds |
| B5 | binds |
| B6 | binds |

target: T1, RBD mutant K417N; assay: binding study, FIG. 46

| Binder | binding result |
| --- | --- |
| B3 | binds |

target: receptor binding domain (RBD) of SARS-CoV-2 glycoprotein S, wild-type (SARS-CoV-2, UniProt P0DTC2 319-591); assay: binding study, chain shuffling (example 19)

| Binder | binding result |
| --- | --- |
| B1 | binds |
| B2 | binds |
| B3 | binds |
| B4 | binds |
| B5 | binds |
| B6 | binds |
